According to patent publication US20090305419:

How the values were obtained:
Assay in all cases: cell_activity
[1] = system: CCR5 ZFN SBS#8266, wild-type ZC linker (artificial (zinc finger-FokI)); conditions: average of 2; ZFN pair
[2] = system: CCR5 ZFN SBS#8266, L6a linker (artificial (zinc finger-FokI)); conditions: average of 2; ZFN pair
[3] = system: CCR5 ZFN SBS#8266, L7a linker (artificial (zinc finger-FokI)); conditions: ZFN pair
[4] = system: mROSA-targeted ZFN pair, Wt/L7a linkers (artificial (zinc finger-FokI)); conditions: Neuro2A; mock 0.4
[5] = system: mROSA-targeted ZFN pair, Wt/Wt linkers (artificial (zinc finger-FokI)); conditions: Neuro2A; mock 0.4; repeats 23.2 and 18.7
[6] = system: rat IgM-targeted ZFN pair, ZC linker (artificial (zinc finger-FokI)); conditions: rat C6 cells, CEL-I
[7] = system: rat IgM-targeted ZFN pair, with L7a linker (artificial (zinc finger-FokI)); conditions: rat C6 cells, CEL-I

CCR5 ZFN SBS#8266, wild-type ZC linker (artificial (zinc finger-FokI)), sequence (chain, as listed by the source): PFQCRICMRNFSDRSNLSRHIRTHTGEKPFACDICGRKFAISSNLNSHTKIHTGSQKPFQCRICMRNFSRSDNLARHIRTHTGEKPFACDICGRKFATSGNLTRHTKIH
CCR5 ZFN SBS#8266, L6a linker (artificial (zinc finger-FokI)), sequence (chain, as listed by the source): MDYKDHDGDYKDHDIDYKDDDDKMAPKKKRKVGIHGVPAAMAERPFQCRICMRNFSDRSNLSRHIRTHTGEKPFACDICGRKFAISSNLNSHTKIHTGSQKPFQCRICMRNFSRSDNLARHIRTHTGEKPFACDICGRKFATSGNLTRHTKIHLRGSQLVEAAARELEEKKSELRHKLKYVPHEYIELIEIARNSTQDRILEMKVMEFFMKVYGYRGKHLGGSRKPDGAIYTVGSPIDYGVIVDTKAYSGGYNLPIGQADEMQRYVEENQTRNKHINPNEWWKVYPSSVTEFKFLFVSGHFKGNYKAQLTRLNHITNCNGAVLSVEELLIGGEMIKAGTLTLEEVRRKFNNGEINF

Substance: CCR5 ZFN target, 4 bp gap
- activity [1]: 1.2 % NHEJ

Substance: CCR5 ZFN target, 5 bp gap
- activity [2]: 39.3 % NHEJ
- activity [1]: 35 % NHEJ

Substance: CCR5 ZFN target, 6 bp gap
- activity [2]: 25.4 % NHEJ
- activity [1]: 11.1 % NHEJ
- activity ([3]; average of 2): 31.8 % NHEJ

Substance: CCR5 ZFN target, 7 bp gap
- activity [2]: 5.1 % NHEJ
- activity ([3]; average of 2): 39.6 % NHEJ

Substance: CCR5 ZFN target, 8 bp gap
- activity ([3]; average of 2 as printed): 6.1 % NHEJ

Substance: mROSA target, 6 bp gap
- activity [4]: 7.5 % NHEJ
- activity [5]: 22.6 % NHEJ

Substance: rat IgM target, 6 bp gap
- activity [6]: 1.93 % NHEJ
- activity [7]: 2.43 % NHEJ
